First the molecules themselves.
B1: RAD54B (parent)
chain: YVQEKRDGLKRRQQLEEELLRAKI
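Also: lentivirally expressed fusions sorted by FACS into six bins by GFP to DsRed ratio, PSI derived from sequencing read proportions per bin multiplied by bin number.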

The variants in this series derive from B1. Kind of series: protein stability index of a GFP-peptide fusion (GPS, HEK-293T) (PSI 1-6); higher = more stable. The following applies: c terminus: a fixed tail appended.
Regarding YVQEKQDGLKRRQQLEEELLRAKI [R6Q], the protein stability index was determined as 2.39.
Under YVQEKEDGLKRRQQLEEELLRAKI [R6E] stands 3.26; under YVQEKMDGLKRRQQLEEELLRAKI [R6M], 2.12; under YVQEKIDGLKRRQQLEEELLRAKI [R6I], 2.66.
YVQEKSDGLKRRQQLEEELLRAKI [R6S]: the protein stability index amounted to 1.75.
The result for YVQEKADGLKRRQQLEEELLRAKI [R6A] reads 2.26; that for YVQEKHDGLKRRQQLEEELLRAKI [R6H], 2.1.
Under YVQEKLDGLKRRQQLEEELLRAKI [R6L] stands 2.46; under YVQEKKDGLKRRQQLEEELLRAKI [R6K], 1.96.
The result for YVQEKTDGLKRRQQLEEELLRAKI [R6T] reads 2.49; that for YVQEKVDGLKRRQQLEEELLRAKI [R6V], 2.23.
As for YVQEKFDGLKRRQQLEEELLRAKI [R6F], the protein stability index is 2.14.
YVQEKYDGLKRRQQLEEELLRAKI [R6Y]: the protein stability index was 2.18.
As to YVQEKDDGLKRRQQLEEELLRAKI [R6D], the protein stability index worked out at 2.87.
The result for YVQEKPDGLKRRQQLEEELLRAKI [R6P] reads 1.94; that for YVQEKCDGLKRRQQLEEELLRAKI [R6C], 2.32.
For the variant YVQEKGDGLKRRQQLEEELLRAKI [R6G], the protein stability index was 2.39.
Regarding YVQEKWDGLKRRQQLEEELLRAKI [R6W], the protein stability index turned out to be 2.07.
The result for YVQEKNDGLKRRQQLEEELLRAKI [R6N] reads 2.31.
Under YVQEKRDGFKRRQQLEEELLRAKI [L9F] stands 2.02.
As to YVQEKRDGEKRRQQLEEELLRAKI [L9E], the protein stability index was found to be 2.85.
Consider YVQEKRDGMKRRQQLEEELLRAKI [L9M], for which the protein stability index is 2.02.
Under YVQEKRDGHKRRQQLEEELLRAKI [L9H] stands 2.1; under YVQEKRDGKKRRQQLEEELLRAKI [L9K], 1.98.
Turning to YVQEKRDGIKRRQQLEEELLRAKI [L9I], the protein stability index stood at 2.25.
The result for YVQEKRDGCKRRQQLEEELLRAKI [L9C] reads 2.06; that for YVQEKRDGAKRRQQLEEELLRAKI [L9A], 2.21; that for YVQEKRDGGKRRQQLEEELLRAKI [L9G], 2.14.
Under YVQEKRDGDKRRQQLEEELLRAKI [L9D] stands 2.92; under YEQEKRDGLKRRQQLEEELLRAKI [V2E], 4.64.
The result for YMQEKRDGLKRRQQLEEELLRAKI [V2M] reads 3.65.
Take YQQEKRDGLKRRQQLEEELLRAKI [V2Q]: the protein stability index was 3.31.
The result for YPQEKRDGLKRRQQLEEELLRAKI [V2P] reads 3.2; that for YKQEKRDGLKRRQQLEEELLRAKI [V2K], 3.82.
Regarding YYQEKRDGLKRRQQLEEELLRAKI [V2Y], the protein stability index is 3.56.
Consider YCQEKRDGLKRRQQLEEELLRAKI [V2C], for which the protein stability index was 3.08.
Under YLQEKRDGLKRRQQLEEELLRAKI [V2L] stands 3.41; under YFQEKRDGLKRRQQLEEELLRAKI [V2F], 3.62.
For YRQEKRDGLKRRQQLEEELLRAKI [V2R], the protein stability index turned out to be 3.82.
Take YWQEKRDGLKRRQQLEEELLRAKI [V2W]: the protein stability index came to 3.35.
For the variant YGQEKRDGLKRRQQLEEELLRAKI [V2G], the protein stability index came out at 4.12.
Take YTQEKRDGLKRRQQLEEELLRAKI [V2T]: the protein stability index came out at 3.75.
The result for YSQEKRDGLKRRQQLEEELLRAKI [V2S] reads 4.01; that for YNQEKRDGLKRRQQLEEELLRAKI [V2N], 3.73.
As to YDQEKRDGLKRRQQLEEELLRAKI [V2D], the protein stability index amounted to 4.46.
As for YHQEKRDGLKRRQQLEEELLRAKI [V2H], the protein stability index is 2.55.
For the variant YAQEKRDGLKRRQQLEEELLRAKI [V2A], the protein stability index was determined as 3.72.
The result for YIQEKRDGLKRRQQLEEELLRAKI [V2I] reads 2.84; that for YVQHKRDGLKRRQQLEEELLRAKI [E4H], 1.6.
For the variant YVQNKRDGLKRRQQLEEELLRAKI [E4N], the protein stability index stood at 1.89.
As for YVQRKRDGLKRRQQLEEELLRAKI [E4R], the protein stability index was 2.31.
As for YVQTKRDGLKRRQQLEEELLRAKI [E4T], the protein stability index amounted to 1.49.
As to YVQAKRDGLKRRQQLEEELLRAKI [E4A], the protein stability index came out at 1.83.
For YVQLKRDGLKRRQQLEEELLRAKI [E4L], the protein stability index was determined as 1.67.
In the case of YVQYKRDGLKRRQQLEEELLRAKI [E4Y], the protein stability index amounted to 2.28.
Take YVQDKRDGLKRRQQLEEELLRAKI [E4D]: the protein stability index was 1.68.
Take YVQSKRDGLKRRQQLEEELLRAKI [E4S]: the protein stability index was 2.9.
Under YVQPKRDGLKRRQQLEEELLRAKI [E4P] stands 2.23.
Under YVQWKRDGLKRRQQLEEELLRAKI [E4W] stands 1.62; under YVQMKRDGLKRRQQLEEELLRAKI [E4M], 1.84.
The result for YVQFKRDGLKRRQQLEEELLRAKI [E4F] reads 1.89.
YVQIKRDGLKRRQQLEEELLRAKI [E4I]: the protein stability index stood at 1.35.
Under YVQGKRDGLKRRQQLEEELLRAKI [E4G] stands 2.13; under YVQKKRDGLKRRQQLEEELLRAKI [E4K], 2.28; under YVQCKRDGLKRRQQLEEELLRAKI [E4C], 2.57.
Take YVQQKRDGLKRRQQLEEELLRAKI [E4Q]: the protein stability index was found to be 1.68.
Under YVQVKRDGLKRRQQLEEELLRAKI [E4V] stands 1.6; under YVWEKRDGLKRRQQLEEELLRAKI [Q3W], 2.43; under YVYEKRDGLKRRQQLEEELLRAKI [Q3Y], 1.8.
Under YVKEKRDGLKRRQQLEEELLRAKI [Q3K] stands 1.81; under YVVEKRDGLKRRQQLEEELLRAKI [Q3V], 2.48.
Under YVNEKRDGLKRRQQLEEELLRAKI [Q3N] stands 2.05; under YVPEKRDGLKRRQQLEEELLRAKI [Q3P], 2.43.
Consider YVCEKRDGLKRRQQLEEELLRAKI [Q3C], for which the protein stability index is 2.01.
Take YVMEKRDGLKRRQQLEEELLRAKI [Q3M]: the protein stability index turned out to be 1.64.
YVSEKRDGLKRRQQLEEELLRAKI [Q3S]: the protein stability index worked out at 1.75.
The result for YVEEKRDGLKRRQQLEEELLRAKI [Q3E] reads 2.35; that for YVTEKRDGLKRRQQLEEELLRAKI [Q3T], 2.94; that for YVLEKRDGLKRRQQLEEELLRAKI [Q3L], 1.75.
Under YVFEKRDGLKRRQQLEEELLRAKI [Q3F] stands 1.95.
Regarding YVIEKRDGLKRRQQLEEELLRAKI [Q3I], the protein stability index amounted to 1.77.
YVHEKRDGLKRRQQLEEELLRAKI [Q3H]: the protein stability index amounted to 1.91.
Regarding YVDEKRDGLKRRQQLEEELLRAKI [Q3D], the protein stability index came to 2.97.
For the variant YVGEKRDGLKRRQQLEEELLRAKI [Q3G], the protein stability index worked out at 1.9.
The result for YVREKRDGLKRRQQLEEELLRAKI [Q3R] reads 1.83.
The result for YVAEKRDGLKRRQQLEEELLRAKI [Q3A] reads 1.98; that for DVQEKRDGLKRRQQLEEELLRAKI [Y1D], 4.4.
The result for QVQEKRDGLKRRQQLEEELLRAKI [Y1Q] reads 3.42; that for NVQEKRDGLKRRQQLEEELLRAKI [Y1N], 3.74.
With AVQEKRDGLKRRQQLEEELLRAKI [Y1A], the protein stability index came out at 3.7.
For the variant FVQEKRDGLKRRQQLEEELLRAKI [Y1F], the protein stability index came to 1.79.
On to HVQEKRDGLKRRQQLEEELLRAKI [Y1H], for which the protein stability index stood at 3.91.
The result for SVQEKRDGLKRRQQLEEELLRAKI [Y1S] reads 4.37; that for CVQEKRDGLKRRQQLEEELLRAKI [Y1C], 3.52.

Values taken from the supplement of paper PMC10567573.
